{"source": "paper PMC3264566", "about": "“Structure-Function Studies of DNA Binding Domain of Response Regulator KdpE Reveals Equal Affinity Interactions at DNA Half-Sites”", "binders": {"B1": {"name": "kdpFABCBS-7 (dsDNA)", "DNA 1": "CATTTTTATACTTTTTCCACACCCCGCCCG", "DNA 2": "CGGGCGGGGTGTGGAAAAAGTATAAAAATG"}, "B2": {"name": "kdpFABCBS 5'del1,3'del8 (21 bp) (dsDNA)", "DNA 1": "ATTTTTATACTTTTTTTACAC", "DNA 2": "GTGTAAAAAAAGTATAAAAAT"}, "B3": {"name": "kdpFABCBS 30 bp (dsDNA)", "DNA 1": "CATTTTTATACTTTTTTTACACCCCGCCCG", "DNA 2": "CGGGCGGGGTGTAAAAAAAGTATAAAAATG"}, "B4": {"name": "kdpFABCBS-1 (dsDNA)", "DNA 1": "CATTCCTATACTTTTTTTACACCCCGCCCG", "DNA 2": "CGGGCGGGGTGTAAAAAAAGTATAGGAATG"}}, "details_in_all_cases": "protein: recombinant; tags: N-terminal His-tag removed with TEV; chain copies: 2; blunt", "key": {"KdpE DBD (KdpEDBD) [1]": {"molecular_target": "T1, KdpE DBD (KdpEDBD) (Escherichia coli str. K-12 substr. …, UniProt P21866 124-225)", "T1 sequence": "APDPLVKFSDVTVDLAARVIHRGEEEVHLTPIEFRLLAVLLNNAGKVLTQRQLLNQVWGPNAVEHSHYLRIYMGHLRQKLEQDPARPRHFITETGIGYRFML", "assay": "AUC sedimentation equilibrium; S1 half-site only, 1:1, AB model; AUC: 50 mM HEPES pH 7.4, 150 mM KCl, 1 mM EDTA, 20 C, DNA 0.5 uM in SV; EMSA: 10 mM Tris pH 8.0, 50 mM NaCl, 5% glycerol, 0.1% Triton X-100, 10 mM DTT, 1 mM EDT"}, "KdpE DBD (KdpEDBD) [2]": {"molecular_target": "T1, KdpE DBD (KdpEDBD)", "assay": "EMSA; minimal 21 bp; AUC: 50 mM HEPES pH 7.4, 150 mM KCl, 1 mM EDTA, 20 C, DNA 0.5 uM in SV; EMSA: 10 mM Tris pH 8.0, 50 mM NaCl, 5% glycerol, 0.1% Triton X-100, 10 mM DTT, 1 mM EDT"}, "KdpE DBD (KdpEDBD) [3]": {"molecular_target": "T1, KdpE DBD (KdpEDBD)", "assay": "AUC sedimentation velocity (Sw isotherm); two-site model, Kd1; AUC: 50 mM HEPES pH 7.4, 150 mM KCl, 1 mM EDTA, 20 C, DNA 0.5 uM in SV; EMSA: 10 mM Tris pH 8.0, 50 mM NaCl, 5% glycerol, 0.1% Triton X-100, 10 mM DTT, 1 mM EDT"}, "KdpE DBD (KdpEDBD) [4]": {"molecular_target": "T1, KdpE DBD (KdpEDBD)", "assay": "AUC sedimentation equilibrium; first binding event, ABB model (macroscopic; upper limit); AUC: 50 mM HEPES pH 7.4, 150 mM KCl, 1 mM EDTA, 20 C, DNA 0.5 uM in SV; EMSA: 10 mM Tris pH 8.0, 50 mM NaCl, 5% glycerol, 0.1% Triton X-100, 10 mM DTT, 1 mM EDT"}, "KdpE DBD (KdpEDBD) [5]": {"molecular_target": "T1, KdpE DBD (KdpEDBD)", "assay": "AUC sedimentation equilibrium; S2 half-site only, 1:1, AB model; AUC: 50 mM HEPES pH 7.4, 150 mM KCl, 1 mM EDTA, 20 C, DNA 0.5 uM in SV; EMSA: 10 mM Tris pH 8.0, 50 mM NaCl, 5% glycerol, 0.1% Triton X-100, 10 mM DTT, 1 mM EDT"}}}
{"binder": "B1", "values": [{"measurement": "Kd", "setting": "KdpE DBD (KdpEDBD) [1]", "value": "350 ± 100", "unit": "nM"}]}
{"binder": "B2", "values": [{"measurement": "binding result", "setting": "KdpE DBD (KdpEDBD) [2]", "value": "binds"}]}
{"binder": "B3", "values": [{"measurement": "Kd", "setting": "KdpE DBD (KdpEDBD) [3]", "value": 90, "unit": "nM"}, {"measurement": "Kd", "setting": "KdpE DBD (KdpEDBD) [4]", "value": "80 ± 25", "unit": "nM"}]}
{"binder": "B4", "values": [{"measurement": "Kd", "setting": "KdpE DBD (KdpEDBD) [5]", "value": "200 ± 100", "unit": "nM"}]}
